Experimental data published in patent US8722732B2, “Oligomer-calcimimetic conjugates and related compounds” (Nektar Therapeutics, priority 2009, dated 2014).
Like-named read-outs stand apart in the source and are kept apart here.

Columns and labels:
[1] = test system: plasma PTH (parathyroid hormone) levels; test: In vivo screen, PTH-lowering effects in normal rats (plasma PTH by ELISA); set-up: species or system rat
Experimental: PEG-Cinacalcet calcimmetic effects were studied in PTH (parathyroid hormone)-lowering experiments in normal rats. Male SD rats (˜350 g) were IV dosed with different compounds at 1 mg/kg or orally (“PO”) cinacalcet at 10 mg/kg. Plasma samples were collected and prepared at different timepoints (up to 72 hours) after drug administration. The plasma PTH levels were quantified by ELISA.

[2] = Hydrolysis of compounds in pH 7.4 PBS buffer at 37° C. (HPLC); type: physicochemical
Experimental: The solution was placed into ten different HPLC vials and the HPLC vials were put into a 37° C. incubator. The samples were analyzed by HPLC at different timepoints. When hydrolysis occurred, HPLC confirmed that cinacalcet was released unaltered.

[3] = rat, in vivo, 1 mg/kg; for AUCall / Clearance: iv
Experimental: (§1) Compound (15), Compound (20), Compound (16), Compound (21), Compound (24), Compound (25), Compound (28) and Compound (29), prepared in accordance with Examples, 5, 7, 6, 8, 9, 10, 11 and 12 respectively, were separately administered intravenously to four male rats to provide a cinacalcet equivalent dose of 1 mg/kg. Parent compound cinacalcet prepared in DMSO at 1 mg/kg was separately administrated intravenously to four male rats. For these cohorts, blood was collected at the following time points: 0 (predose), 2 minutes, 10 minutes, 1 hour, 2 hours, 4 hours, 8 hours, 24 hours, 48 hours and 72 hours following administration.

[4] = Hydrolysis / pharmacokinetics in an in vivo dog study; settings: male, beagle, plasma, po, 10 mg/kg
Experimental: (§2) Briefly, cinacalcet hydrochloride was administered orally to three male beagle dogs to provide a cinacalcet equivalent dose of 2.0 mg/kg. […] For both the cohorts, blood was collected at the following time points: 0 (predose); 10 min, 1, 2, 4, 8, 24, 48, 72, 120 and 144 h.

[5] = Hydrolysis / pharmacokinetics in an in vivo rat study (plasma concentration-time profiles); settings: male, po, 10 mg/kg
Experimental: as §1

CYP2D6 = CYP2D6 (Homo sapiens, UniProt P10635); settings: background statement; cited from earlier work
Chain of CYP2D6 (P10635 whole entry): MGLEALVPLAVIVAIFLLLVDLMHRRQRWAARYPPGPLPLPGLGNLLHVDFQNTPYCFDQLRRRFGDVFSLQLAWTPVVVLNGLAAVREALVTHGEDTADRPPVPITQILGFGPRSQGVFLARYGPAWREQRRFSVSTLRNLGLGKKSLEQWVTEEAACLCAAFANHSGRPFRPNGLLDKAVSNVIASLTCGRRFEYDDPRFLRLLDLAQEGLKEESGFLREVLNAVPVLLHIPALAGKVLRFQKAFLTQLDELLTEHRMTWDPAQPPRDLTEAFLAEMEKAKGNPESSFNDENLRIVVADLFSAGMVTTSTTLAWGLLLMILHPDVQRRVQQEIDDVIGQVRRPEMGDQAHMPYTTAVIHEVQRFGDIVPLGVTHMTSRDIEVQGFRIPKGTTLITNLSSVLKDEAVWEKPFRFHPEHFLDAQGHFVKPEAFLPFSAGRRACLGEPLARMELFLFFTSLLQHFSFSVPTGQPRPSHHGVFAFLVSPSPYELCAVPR

[6] = dog, in vivo
Experimental: as §2

[7] = test system: plasma PTH (parathyroid hormone) levels; test: In vivo screen, rat chronic renal insufficiency (CRI) model, 5/6 nephrectomy; settings: 5/6 Nx rats, 6-8 weeks post surgery
From the text: The approach set forth in Example 14 is repeated except rats were surgically modified to mimic chronic renal insufficiency through the total removal of one kidney and ⅔ of the other kidney (a 5/6 nephrectomy or “5/6Nx”). […] Parathyroid hormone levels in normal rats are around 100 pg/ml and in 5/6 Nx rats they increase to 500-1000 pg/ml.

Which results are given for “mPEG10k-L-valine-acyloxymethyl-carbamate-cinacalcet [Compound (24)]”?
PTH-lowering effect (in words) ([1]; IV, 1 mg/kg): variable PTH-lowering effects; time at which animal PTH levels return to baseline ([1]; IV, 1 mg/kg): ~24 h; t1/2 in PBS [2]: ~317 h; cinacalcet release after intravenous administration (in words) [3]: relatively significant amounts of cinacalcet release; time for which release of cinacalcet continues following intravenous administration [3]: 8 to 12 h

Which “PTH-lowering effect (in words)” value ([1]; IV, 1 mg/kg) does the source give for “Four-arm-PEG20k-L-valine-acyloxymethyl-carbamate-cinacalcet [Compound (25)]” here?
The value was “variable PTH-lowering effects”.

What about the “time at which animal PTH levels return to baseline” value (from here on “time … to baseline”) ([1]; IV, 1 mg/kg) of the same compound?
The value was roughly 24 h.

What about the “cinacalcet release after intravenous administration (in words)” value (shortened to “cinacalcet release”) [3] of the same compound?
Its value is “relatively significant amounts of cinacalcet release”.

What about the “time for which release of cinacalcet continues following intravenous administration” value [3] of the same compound?
Its value is 8 to 12 h.

Which “PTH-lowering effect (in words)” value ([1]; IV, 1 mg/kg) does the source give for “mPEG10k-D-valine-acyloxymethyl-carbamate-cinacalcet [Compound (28)]” here?
Its value is “variable PTH-lowering effects”.

And the “time … to baseline” value ([1]; IV, 1 mg/kg)?
The value was roughly 24 h.

And the “t1/2 in PBS” value [2]?
Its value is roughly 208 h.

And the “cinacalcet release” value [3]?
Its value is “relatively significant amounts of cinacalcet release”.

And the “time for which release of cinacalcet continues following intravenous administration” value [3]?
Its value is 8 to 12 h.

Which “PTH-lowering effect (in words)” value ([1]; IV, 1 mg/kg) does the source give for “Four-arm-PEG20k-L-leucine-acyloxymethyl-carbamate-cinacalcet [Compound (21)]” here?
The value was “significant PTH-lowering effects”.

What about the AUCall [3] of the same compound?
Its AUCall is 5730 ng·min/mL.

And the Clearance [3]?
Its Clearance is 206 mL/min/kg.

Which AUC [4] does the source give for C[C@@H](NCCCc1cccc(C(F)(F)F)c1)c1cccc2ccccc12 [cinacalcet] here?
The AUC was 17.8 ng·h/mL.

And the Cmax [4]?
The Cmax was 6.01 ng/mL.

And the Vd/F [4]?
The Vd/F was 294 L/kg.

What about the half-life [4] of the same compound?
Its half-life is 1.77 h.

What about the “PTH-lowering effect lasts up to” value ([1]; PO, 10 mg/kg) of the same compound?
The value was roughly 12 h.

And the AUC [5]?
Its AUC is 690 ng·h/mL.

What about the Cmax [5] of the same compound?
Its Cmax is 97.4 ng/mL.

And the half-life [5]?
The half-life was 2.98 h.

And the CYP2D6 inhibition (CYP2D6)?
The CYP2D6 inhibition was “inhibitor of CYP2D6”.

Which “PTH-lowering effect (in words)” value ([1]; IV, 1 mg/kg) does the source give for “Four-arm-PEG20k-D-valine-acyloxymethyl-carbamate-cinacalcet [Compound (29)]” here?
Its value is “variable PTH-lowering effects”.

And the “time … to baseline” value ([1]; IV, 1 mg/kg)?
Its value is roughly 24 h.

What about the “cinacalcet release” value [3] of the same compound?
The value was “relatively significant amounts of cinacalcet release”.

And the “time for which release of cinacalcet continues following intravenous administration” value [3]?
The value was 8 to 12 h.

For “mPEG10k-L-leucine-acyloxymethyl-carbamate-cinacalcet [Compound (20)]”, which “PTH-lowering effect (in words)” value ([1]; IV, 1 mg/kg) is on record?
The value was “significant PTH-lowering effects”.

What about the “PTH-lowering effect lasts up to” value ([1]; IV, 1 mg/kg) of the same compound?
The value was 24 to 48 h.

What about the “t1/2 in PBS” value [2] of the same compound?
The value was roughly 126 h.

And the AUCall [3]?
Its AUCall is 11200 ng·min/mL.

And the Clearance [3]?
The Clearance was 100 mL/min/kg.

Which “Cmax versus cinacalcet (in words)” value [6] does the source give for “Four-arm-PEG30k-L-leucine-acyloxymethyl-carbamate-cinacalcet [Compound (31)]” here?
Its value is “blunted”.

And the “half-life versus cinacalcet (in words)” value [6]?
The value was “increased”.

What about the “time up to which therapeutically relevant levels of cinacalcet are released” value ([6]; iv) of the same compound?
The value was “up to 72 hours”.

And the AUCall ([6]; iv, 1 mg/kg)?
Its AUCall is 176 ng·h/mL.

And the Clearance ([6]; iv, 1 mg/kg)?
The Clearance was 43.33 mL/min/kg.

What about the T1/2 ([6]; iv, 1 mg/kg) of the same compound?
The T1/2 was 0.432 h.

And the “Vz(F)” value ([6]; iv, 1 mg/kg)?
Its value is 97.2 L/kg.

With “mPEG10k-L-isoleucine-acyloxymethyl-carbamate-cinacalcet [(36)]” as the compound, how does the “t1/2 in PBS” value [2] read?
Its value is roughly 470 h.

Which “reduction of PTH levels (in words)” value [7] does the source give for “Four-arm-PEG20k-glycine-amide-cinacalcet [Compound (16)]” here?
The value was “PTH levels are not reduced as significantly as Compounds (25), (28), and (29)”.
